According to patent publication US8703459B2, “Catalytic domains of beta(1,4)-galactosyltransferase I having altered metal ion specificity” (The United States of America, as represented by the …, priority 2003, dated 2014):
Marks after values point to notes of the source that are not given here. One block for each molecule: values may come before it.

Assays:
[1] = β4Gal-T enzyme assay, specific activity in the presence of various metal ions; format: biochemical, bovine; settings: 500 μM UDP-Gal, 25 mM GlcNAc; for Catalytic Activity in the Presence of Various Metal Ions: Co: 0.1 mM Co^2+; for Catalytic Activity in the Presence of Various Metal Ions: Zn: 0.1 mM Zn^2+; for Catalytic Activity in the Presence of Various Metal Ions: Ca / Catalytic Activity in the Presence of Various Metal Ions: Mg / Catalytic Activity in the Presence of Various Metal Ions: Mn / Catalytic Activity in the Presence of Various Metal Ions: Sr: 5 mM metal ion
Procedure: Protein concentrations were measured using the Bio-Rad Protein Assay kit, based on the method of Bradford and further verified on SDS-PAGE gels using standard protein concentration markers. An in vitro assay procedure for Gal-T1 has been reported previously (Ramakrishnan et al., J. Mol. Biol., 310:205 (2001)). The activities were measured using UDP-Gal as sugar nucleotide donor, and GlcNAc as the acceptor sugar. For the specific activity measurements, a 100 μL incubation mixture containing 25 mM GlcNAc, 5 mM MnCl2 or MgCl2, 20 mM Tris-HCl pH 8.0, 500 μM UDP-Gal, 500 ng M344H-Gal-T1 or 30 ng of C342T-Gal-T1 and 0.5 μCi ^3H-UDP-Gal was used for each Gal-T reaction. The incubation was carried out at 30° C. for 15 minutes. The reaction was terminated by adding of 200 μl cold water, and the mixture was passed through a 0.5 mL bed volume column of AG 1-X8 […] resin (Bio-Rad) to remove any unreacted ^3H-UDP-Gal. The column was washed successively with 300, 400 and 500 μl of cold water, and the column flow-through was diluted with Biosafe scintillation fluid; radioactivity was measured with a Beckman counter. A reaction without the acceptor sugar was used as a control. Only 0.1 mM concentration of ZnCl2 or CoCl2 was used whenever Zn^2+ or Co^2+ was used during the enzyme assay.

[2] = Metal ion activation curve, metal binding constants for Mn^2+; format: biochemical, bovine
Description: The activation curve of M344E-Gal-T1, using Mn^2+, is strikingly different from that of the wild-type enzyme (FIGS. 1A and 1B). In contrast to the wild type enzyme, the velocity curve obtained with the Mn^2+ concentration for the M344E-Gal-T1 mutant is not sigmoidal. On the other hand, the same curve for the M344H-Gal-T1 mutant in the presence of the Mg^2+ is sigmoidal (FIG. 1C). The observation that activation of the wild type enzyme by metal ions is sigmoidal has been interpreted as involving two metal binding sites in the enzyme: one with high affinity (Kd1), which is associated with low velocity, and a second site with low affinity (Kd2), which is associated with high velocity (Powell and Brew, J. Biol. Chem., 251:3645 (1976); Boeggeman and Qasba, Glycobiology, 12:395 (2002)). […] The values of the dissociation constant (Kd) for Mn^2+ of the mutant are quite different from that of the wild type (Table IV).
The enzyme activation data at various concentrations of Mg^2+ were fitted to an equation describing metal binding to a high affinity site (K1) to generate an enzyme form with a low kcat (V1) and to a second, lower affinity site (K2) to generate a form with a higher kcat (V2) (Boeggeman and Qasba, Glycobiology, 12:395 (2002)): […]

K1 compared with binding to the primary site of the wild type ([2]; Mn^2+): fifty-fold lower | Kd ([2]; single metal binding site model, derived from FIG. 1B, read-out: binding constant K1 for Mn^2+): 500 nM
B1: M344E-Gal-T1: bovine β4Gal-T1 catalytic domain (C342T) with Met344 mutated to glutamic acid (protein, listed as Bos taurus)
chain: MKFREPLLGGSAAMPGASLQRACRLLVAVCALHLGVTLVYYLAGRDLRRLPQLVGVHPPLQGSSHGAAAIGQPSGELRLRGVAPPPPLQNSSKPRSRAPSNLDAYSHPGPGPGPGSNLTSAPVPSTTTRSLTACPEESPLLVGPMLIEFNIPVDLKLIEQQNPKVKLGGRYTPMDCISPHKVAIIILFRNRQEHLKYWLYYLHPMVQRQQLDYGIYVINQAGESMFNRAKLLNVGFKEALKDYDYNCFVFSDVDLIPMNDHNTYRCFSQPRHISVAMDKFGFSLPYVQYFGGVSALSKQQFLSINGFPNNYWGWGGEDDDIYNRLAFRGMSVSRPNAVIGKCREIRHSRDKKNEPNPQRFDRIAHTKETMLSDGLNSLTYMVLEVQRYPLYTKITVDIGTPS
Catalytic Activity in the Presence of Various Metal Ions: Co [1]: 0.24 picomoles per minute per nanogram | Catalytic Activity in the Presence of Various Metal Ions: Zn [1]: 0.27 picomoles per minute per nanogram | Catalytic Activity in the Presence of Various Metal Ions: Ca [1]: 0.01 picomoles per minute per nanogram | Catalytic Activity in the Presence of Various Metal Ions: Mg [1]: 0 picomoles per minute per nanogram | Catalytic Activity in the Presence of Various Metal Ions: Mn [1]: 0.32 picomoles per minute per nanogram | Catalytic Activity in the Presence of Various Metal Ions: Sr [1]: 0.02 picomoles per minute per nanogram

B2: M344Q: Met344 mutant of β4Gal-T1, Met344 to Gln (protein, listed as Bos taurus)
chain: MKFREPLLGGSAAMPGASLQRACRLLVAVCALHLGVTLVYYLAGRDLRRLPQLVGVHPPLQGSSHGAAAIGQPSGELRLRGVAPPPPLQNSSKPRSRAPSNLDAYSHPGPGPGPGSNLTSAPVPSTTTRSLTACPEESPLLVGPMLIEFNIPVDLKLIEQQNPKVKLGGRYTPMDCISPHKVAIIILFRNRQEHLKYWLYYLHPMVQRQQLDYGIYVINQAGESMFNRAKLLNVGFKEALKDYDYNCFVFSDVDLIPMNDHNTYRCFSQPRHISVAMDKFGFSLPYVQYFGGVSALSKQQFLSINGFPNNYWGWGGEDDDIYNRLAFRGMSVSRPNAVIGKCRQIRHSRDKKNEPNPQRFDRIAHTKETMLSDGLNSLTYMVLEVQRYPLYTKITVDIGTPS
Catalytic Activity in the Presence of Various Metal Ions: Co [1]: 0.80^b picomoles per minute per nanogram | Catalytic Activity in the Presence of Various Metal Ions: Zn [1]: 0.71 picomoles per minute per nanogram | Catalytic Activity in the Presence of Various Metal Ions: Ca [1]: 0 picomoles per minute per nanogram | Catalytic Activity in the Presence of Various Metal Ions: Mg [1]: 0 picomoles per minute per nanogram | Catalytic Activity in the Presence of Various Metal Ions: Mn [1]: 1.91 picomoles per minute per nanogram | Catalytic Activity in the Presence of Various Metal Ions: Sr [1]: 0 picomoles per minute per nanogram

B3: M344S: Met344 mutant of β4Gal-T1 (protein, listed as Bos taurus)
chain: MKFREPLLGGSAAMPGASLQRACRLLVAVCALHLGVTLVYYLAGRDLRRLPQLVGVHPPLQGSSHGAAAIGQPSGELRLRGVAPPPPLQNSSKPRSRAPSNLDAYSHPGPGPGPGSNLTSAPVPSTTTRSLTACPEESPLLVGPMLIEFNIPVDLKLIEQQNPKVKLGGRYTPMDCISPHKVAIIILFRNRQEHLKYWLYYLHPMVQRQQLDYGIYVINQAGESMFNRAKLLNVGFKEALKDYDYNCFVFSDVDLIPMNDHNTYRCFSQPRHISVAMDKFGFSLPYVQYFGGVSALSKQQFLSINGFPNNYWGWGGEDDDIYNRLAFRGMSVSRPNAVIGKCRSIRHSRDKKNEPNPQRFDRIAHTKETMLSDGLNSLTYMVLEVQRYPLYTKITVDIGTPS
Catalytic Activity in the Presence of Various Metal Ions: Co [1]: 0.41 picomoles per minute per nanogram | Catalytic Activity in the Presence of Various Metal Ions: Zn [1]: 0.40 picomoles per minute per nanogram | Catalytic Activity in the Presence of Various Metal Ions: Ca [1]: 0 picomoles per minute per nanogram | Catalytic Activity in the Presence of Various Metal Ions: Mg [1]: 0 picomoles per minute per nanogram | Catalytic Activity in the Presence of Various Metal Ions: Mn [1]: 1.97 picomoles per minute per nanogram | Catalytic Activity in the Presence of Various Metal Ions: Sr [1]: 0 picomoles per minute per nanogram

B4: M344A: Met344 mutant of β4Gal-T1, Met344 to Ala (protein, listed as Bos taurus)
chain: MKFREPLLGGSAAMPGASLQRACRLLVAVCALHLGVTLVYYLAGRDLRRLPQLVGVHPPLQGSSHGAAAIGQPSGELRLRGVAPPPPLQNSSKPRSRAPSNLDAYSHPGPGPGPGSNLTSAPVPSTTTRSLTACPEESPLLVGPMLIEFNIPVDLKLIEQQNPKVKLGGRYTPMDCISPHKVAIIILFRNRQEHLKYWLYYLHPMVQRQQLDYGIYVINQAGESMFNRAKLLNVGFKEALKDYDYNCFVFSDVDLIPMNDHNTYRCFSQPRHISVAMDKFGFSLPYVQYFGGVSALSKQQFLSINGFPNNYWGWGGEDDDIYNRLAFRGMSVSRPNAVIGKCRAIRHSRDKKNEPNPQRFDRIAHTKETMLSDGLNSLTYMVLEVQRYPLYTKITVDIGTPS
Catalytic Activity in the Presence of Various Metal Ions: Co [1]: 0.61^b picomoles per minute per nanogram | Catalytic Activity in the Presence of Various Metal Ions: Zn [1]: 0.64 picomoles per minute per nanogram | Catalytic Activity in the Presence of Various Metal Ions: Ca [1]: 0 picomoles per minute per nanogram | Catalytic Activity in the Presence of Various Metal Ions: Mg [1]: 0 picomoles per minute per nanogram | Catalytic Activity in the Presence of Various Metal Ions: Mn [1]: 4.16 picomoles per minute per nanogram | Catalytic Activity in the Presence of Various Metal Ions: Sr [1]: 0 picomoles per minute per nanogram
